Assays:
[1] = test system: GRP78 siRNA transfected HMVEC cells; assay: 3HK5 binding to GRP78 siRNA transfected cells; design: species or system human; conditions: compared to scrambled siRNA transfected cells
Procedure: FIG. 13 is a graph comparing the effect of binding of rK5 to GRP78 siRNA transfected HMVEC cells and scrambled siRNA transfected cells. GRP78 siRNA or scrambled siRNA transfected EaHy cells were grown in 96 well plates. The media was changed and ^3HK5 in PBS was added to the cells. The cells were incubated at room temperature for two hours then washed thoroughly. Cell counts were measure for bound ^3HK5. Data points are the average of triplicate studies.
In selected studies, GRP78 siRNA- or scrambled siRNA-transfected EaHy cells were grown in 96 well plates. The media was changed and ^3HK5 in PBS was added to the cells at various concentrations. The cells were incubated at room temperature for two hours then washed thoroughly. Cell counts were measured for bound ^3HK5 as described above. Data points were calculated from the average of triplicate samples.

neutrophils = assay: Neutrophil migration; type: cell-based; conditions: concentrations up to 1000-fold higher than for endothelial cell migration; data not shown
MDA 445 = assay: Tumor cell proliferation, MDA 445; type: cell-based; conditions: MDA 445, 72 hours
Procedure: (§1) Cell Proliferation Assay. The effect of rK5 and rK5 peptides on endothelial cells were assessed using a proliferation assay with 1% BSA and 3 ng/ml bFGF in serum-free media. Relative cell numbers in each well of a 96 well microplate after incubation for 72 hours in the absence or presence of inhibitors were determined by using the AQueous cell proliferation assay (Promega, San Luis Obispo, Calif.). For all other cell lines tested for proliferation, minimal growth media was used (Cao, Y., Ji, R., Davidson, D., Schaller, J., Marti, D., Sohndel, S., McCance, S., O'Reilly, M., Llinas, M., and Folkman, J. Kringle domains of human angiostatin. Characterization of the anti-proliferative activity on endothelial cells. (1996) J. Biol. Chem. 271, 29461-29467). Results are presented as the percent inhibition of control cell (bFGF-induced) proliferation.

[2] = test system: bovine endothelial cell proliferation; conditions: previously reported (Cao et al. 1996); read-out: IC50, inhibition of bovine endothelial cell proliferation; cited from earlier work
[3] = test system: tumor or primary cell proliferation; assay: Tumor or primary cell proliferation; type: cell-based; conditions: at concentrations as high as 100 μM
Procedure: as §1

HMVEC = HMVEC (Homo sapiens, UniProt P11021); assay: VEGF-stimulated HMVEC migration (Boyden chamber); type: cell-based; conditions: read-out: inhibition of endothelial cell migration
Chain of HMVEC (P11021 19-654): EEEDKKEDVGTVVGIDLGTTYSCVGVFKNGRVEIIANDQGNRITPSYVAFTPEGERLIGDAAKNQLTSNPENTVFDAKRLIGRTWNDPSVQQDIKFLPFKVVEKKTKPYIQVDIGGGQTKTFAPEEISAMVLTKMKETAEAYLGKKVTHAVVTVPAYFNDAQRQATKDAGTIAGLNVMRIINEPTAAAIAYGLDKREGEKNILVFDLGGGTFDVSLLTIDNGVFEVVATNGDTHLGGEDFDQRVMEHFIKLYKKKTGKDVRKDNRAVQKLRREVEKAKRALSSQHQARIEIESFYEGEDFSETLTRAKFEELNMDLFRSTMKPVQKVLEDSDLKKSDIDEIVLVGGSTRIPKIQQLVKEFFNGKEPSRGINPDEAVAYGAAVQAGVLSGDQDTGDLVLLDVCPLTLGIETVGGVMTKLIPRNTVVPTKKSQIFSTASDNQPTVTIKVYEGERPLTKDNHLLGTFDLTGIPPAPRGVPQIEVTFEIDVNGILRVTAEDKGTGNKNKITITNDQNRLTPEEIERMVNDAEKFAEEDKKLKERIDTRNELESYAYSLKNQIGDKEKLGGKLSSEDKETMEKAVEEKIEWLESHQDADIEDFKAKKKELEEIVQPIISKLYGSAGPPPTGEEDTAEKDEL
Procedure: Endothelial cell migration assays: The effect of rK5 on endothelial cell migration was determined by two different methods. The first assay was performed in a 96 well plate with a cellulose membrane between the upper and lower chambers. HMVEC were starved of growth factors overnight, labeled with fluorescent calcein AM (50-100 nM), plated into a 96 well migration chamber (2.9×10^4/well) (Neuroprobe, Gaitherburg, Md.), and stimulated to migrate with VEGF (5 ng/mL). After 4 h, migrated cells were measured by fluorescence (Frevert C W, Wong V A, Goodman R B, Goodwin R, Martin T R. Rapid fluorescence-based measurement of neutrophil migration in vitro. J Immunol Methods. 1998 Apr. 1;213(1):41-52). In a second assay for cellular migration, a standard Boyden chamber was used (Polyerini, P. J., Bouck, N. P. & Rastinejad, F. Assay and purification of naturally occurring inhibitor of angiogenesis. Meth. Enzymol. 198, 440-450 (1991)). HMVEC cells were starved overnight in DME containing 0.1% bovine serum albumin (BSA) and harvested by scraping and resuspended in DME with 0.1% BSA at 1.5×10^6 cells per ml. Cells were added to the bottom of a 48-well, Boyden chamber. The chamber was assembled and inverted, and cells were allowed to attach for 2 hours at 37° C. to polycarbonate chemotaxis membranes (5 μm pore size) that had been soaked in 0.1% gelatin overnight and dried. The chamber was re-inverted, test substances, including activators were added to the wells of the upper chamber and the apparatus was incubated for 4 hours at 37° C. Growth factors were used, where indicated, at concentrations determined in preliminary experiments to give equivalent migration responses of about 100 cells migrated/high powered field (400×). […] Membranes were recovered, fixed and stained and the number of cells that had migrated to the upper chamber per 10 high power fields counted. Background migration to DME+0.1% BSA was subtracted and the data reported as the number of cells migrated per 10 high power fields (400×) or, when results from multiple experiments were combined, as the percent inhibition of migration compared to the positive growth factor control (Polyerini, P. J., Bouck, N. P. & Rastinejad, F. Assay and purification of naturally occurring inhibitor of angiogenesis. Meth. Enzymol. 198, 440-450 (1991)).

fibroblasts = assay: Fibroblast migration; type: cell-based; conditions: concentrations up to 1000-fold higher than for endothelial cell migration; data not shown

B1: rK5: recombinant kringle 5 fragment of human plasminogen (residues 450-543), expressed in E. coli or yeast (protein)
chain: LLPDVETPSEEDCMFGNGKGYRGKRATTVTGTPCQDWAAQEPHRHSIFTPETNPRAGLEKNYCRNPDGDVGGPWCYTTNPRKLYDYCDVPQCAA
In the case of B1, the “binding to GRP78 siRNA transfected HMVEC cells” value [1] is reported as “very low”, the “inhibition of migration of neutrophils” value (neutrophils) is reported as “failed to inhibit” and the “IC50 values for cell proliferation” value (MDA 445) is reported as greater than 100 µg/mL. The IC50 [2] was roughly 50 nM, the “inhibition of tumor or primary cell proliferation” value [3] was “did not cause inhibition” and the IC50 (HMVEC) was 0.25 nM. For the same molecule, the “inhibition of migration of fibroblasts” value (fibroblasts) was “failed to inhibit”.
